Assay results: publication PMC5893306 (Molecular pharmaceutics, 2018)
*1 amine or outer side, *2 acyl side, *3 side chain or, on linkers, in order; H or OH if unused. Bridges are numbered along the chain shown (N, C = ends). Roman numbers before positions name the chains, in order. [ ]: non-standard residue; d: D form. X1 = CC(C)CCC[C@@H](C)[C@H]1CC[C@H]2[C@@H]3CC=C4C[C@@H](OC(=O)NCCOCCOCCOCCOCCC(=O)NCCOCCOCCOCCOCCOCCOCCOCCOCCOCCOCCOCCOCCOCCOCCOCCOCCOCCOCCOCCOCCOCCOCCOCCOCCOCCOCCOCCOCCC(=O)NC(CCC(=O)[*:1])(CCC(=O)[*:2])CCC(=O)[*:3])CC[C@]4(C)[C@H]3CC[C@]12C; PEG4 = NCCOCCOCCOCCOCCC(=O)O

What was measured:
[1] = Rat pharmacokinetics, IV and SC; format: in vivo, Sprague Dawley rats
[2] = Solubility in standard aqueous buffers; format: physicochemical; details: standard aqueous buffers (e.g., PBS, HEPES) at physiological pH
[3] = Rat pharmacokinetics, IV and SC
[4] = Non-human primate pharmacokinetics, IV and SC; format: in vivo, cynomolgus monkeys; details: male, cynomolgus monkey, plasma; for half-life: pH 7.4
[5] = Sprague-Dawley, rat, plasma, sc
[6] = rats, IV, compared to PIE12-trimer
[7] = male, rat, in vivo, iv, 1 mg/kg, pH 7.4
[8] = male, rat, in vivo, sc, 1 mg/kg
[9] = male, rat, in vivo, iv, 1 mg/kg

## CC(=O)N[C@H](Cc1c[nH]cn1)C(=O)N1CCC[C@@H]1C(=O)N[C@@H]1CSSC[C@H](C(=O)N[C@H](CCC(=O)O)C(=O)N[C@H](CC(C)C)C(=O)NCC(=O)N[C@H](CCCCNC(=O)CCOCCOCCOCCOCCNC(=O)CCOCC(COCCC(=O)NCCOCCOCCOCCOCCC(=O)NCCCC[C@@H](NC(=O)CNC(=O)[C@@H](CC(C)C)NC(=O)[C@@H](CCC(=O)O)NC(=O)[C@H]2CSSC[C@@H](NC(=O)[C@H]3CCCN3C(=O)[C@@H](Cc3c[nH]cn3)NC(C)=O)C(=O)N[C@H](CC(=O)O)C(=O)N[C@H](Cc3ccc(O)cc3)C(=O)N3CCC[C@@H]3C(=O)N[C@H](CCC(=O)O)C(=O)N[C@H](Cc3c[nH]c4ccccc34)C(=O)N[C@H](CCC(N)=O)C(=O)N[C@H](Cc3c[nH]c4ccccc34)C(=O)N[C@H](CC(C)C)C(=O)N2)C(N)=O)(COCCC(=O)NCCOCCOCCOCCOCCC(=O)NCCCC[C@@H](NC(=O)CNC(=O)[C@@H](CC(C)C)NC(=O)[C@@H](CCC(=O)O)NC(=O)[C@H]2CSSC[C@@H](NC(=O)[C@H]3CCCN3C(=O)[C@@H](Cc3c[nH]cn3)NC(C)=O)C(=O)N[C@H](CC(=O)O)C(=O)N[C@H](Cc3ccc(O)cc3)C(=O)N3CCC[C@@H]3C(=O)N[C@H](CCC(=O)O)C(=O)N[C@H](Cc3c[nH]c4ccccc34)C(=O)N[C@H](CCC(N)=O)C(=O)N[C@H](Cc3c[nH]c4ccccc34)C(=O)N[C@H](CC(C)C)C(=O)N2)C(N)=O)NC(=O)CCOCCOCCOCCOCCOCCOCCOCCOCCOCCOCCOCCOCCOCCOCCOCCOCCOCCOCCOCCOCCOCCOCCOCCOCCNC(=O)CCN2C(=O)CC(S[C@H]3CC[C@@]4(C)C(=CC[C@H]5[C@@H]6CC[C@H]([C@H](C)CCCC(C)C)[C@@]6(C)CC[C@@H]54)C3)C2=O)C(N)=O)NC(=O)[C@@H](CC(C)C)NC(=O)[C@@H](Cc2c[nH]c3ccccc23)NC(=O)[C@@H](CCC(N)=O)NC(=O)[C@@H](Cc2c[nH]c3ccccc23)NC(=O)[C@@H](CCC(=O)O)NC(=O)[C@H]2CCCN2C(=O)[C@@H](Cc2ccc(O)cc2)NC(=O)[C@@H](CC(=O)O)NC1=O (some centres unmarked) [Chol-PIE12-trimer]
[1]; Sprague-Dawley, rat, plasma, iv
  Vd: 0.134 L/kg
[1]; [5]
  Tmax: 4 h
  bioavailability: 73%
[1]; [6]
  increase of IV half-life: 3 fold
  reduction of clearance: 14-18 fold
[1]; rats, SC, based on terminal-phase elimination, compared to PIE12-trimer
  extension of apparent half-life upon SC dosing: ~ 3 fold
[2]
  solubility: ~ 40 mg/ml
[3]; [7]
  half-life: 1.6 h
[3]; [8]
  bioavailability: 51%
[3]; rat, in vivo, iv, 1 mg/kg
  C0: 4530 nM

## I: Ac-[dH][dP][dC][dD][dY][dP][dE][dW][dQ][dW][dL][dC][dE][dL]G[PEG4][dK]-NH2 / II: Ac-[dH][dP][dC][dD][dY][dP][dE][dW][dQ][dW][dL][dC][dE][dL]G[PEG4][dK]-NH2 / III: Ac-[dH][dP][dC][dD][dY][dP][dE][dW][dQ][dW][dL][dC][dE][dL]G[PEG4][dK]-NH2 (disulfide I:3-I:12, II:3-II:12, III:3-III:12; linker I:17-II:17-III:17 via X1) [CPT31]
[4]; iv, 1 mg/kg
  AUC(0-inf): 11.6 µM·h
  C0: 3110 nM
  Vd: 0.097 L/kg
  clearance: 0.158 mL/min/kg
  half-life: 7.4 h
[4]; sc, 3 mg/kg
  AUC(0-inf): 29.4 µM·h
  Cmax: 922 nM
  Tmax: 8 h
  bioavailability: 80%
  half-life: 18.8 h
[2]
  solubility: ~ 40 mg/ml
[3]; [9]
  AUC(0-inf): 3.84 µM·h
  C0: 2950 nM
  Vd: 0.134 L/kg
  clearance: 0.483 mL/min/kg
[3]; [7]
  half-life: 3.3 h
[3]; [8]
  AUC(0-inf): 2.11 µM·h
  Cmax: 261 nM
  Tmax: 2 h
  half-life: 5.4 h
[3]; rats, IV, compared to Chol-PIE12-trimer
  prolongation of IV half-life: 2 fold
[3]; rats, SC, compared to Chol-PIE12-trimer
  prolongation of SC half-life: 1.4 fold
